Laboratory results reported in PMC5624674 (2017).

B1: λCI-ZipACTD (residues 186–328) [E. coli] / α-FtsZ fusion protein (wild-type E. coli FtsZ) [E. coli] (parent complex)
chain 1: not shown
chain 2: MFEPMELTNDAVIKVIGVGGGGGNAVEHMVRERIEGVEFFAVNTDAQALRKTAVGQTIQIGSGITKGLGAGANPEVGRNAADEDRDALRAALEGADMVFIAAGMGGGTGTGAAPVVAEVAKDLGILTVAVVTKPFNFEGKKRMAFAEQGITELSKHVDSLITIPNDKLLKVLGRGISLLDAFGAANDVLKGAVQGIAELITRPGLMNVDFADVRTVMSEMGYAMMGSGVASGEDRAEEAAEMAISSPLLEDIDLSGARGVLVNITAGFDLRLDEFETVGNTIRAFASDNATVVIGTSLDPDMNDELRVTVVATGIGMDKRPEITLVTNKQVQQPVMDRYQQHGMAPLTQEQKPVAKVVNDNAPQTAKEPDYLDIPAFLRKQAD

Variants of: B1
Test: bacterial two-hybrid β-galactosidase assay; 25 μM IPTG; parent: 720; read off a plot

**Q.** For chain 2 L169P, which response is on record?
**A.** Its response is ~790 Miller Units.

**Q.** For chain 2 F182S, which response is on record?
**A.** The response was ~770 Miller Units.

**Q.** chain 2 S177P was tested. Which response did it give?
**A.** The response was ~790 Miller Units.

**Q.** With chain 2 D180N as the variant, how does the response read?
**A.** The response was ~770 Miller Units.

**Q.** With chain 2 L179R as the variant, how does the response read?
**A.** The response was ~880 Miller Units.
